# Measured values reported in PMC6856630.
# Assays:
# Assay in all cases: BLI; Octet RED384; biotinylated neurexin LNS2 on streptavidin tips, Nxph in solution; 25°C, PBS pH 7.4, 50 nM TCEP, 1% BSA; global fit, double reference subtraction
# [1] = target: Nrxn3 LNS2^SS2−, AviTag-His, biotinylated (BLI) (mouse)
# [2] = target: Nrxn2 LNS2^SS2− (I401Q), AviTag-His, biotinylated (BLI) (mouse)
# [3] = target: Nrxn3 LNS2^SS2− (I401Q), AviTag-His, biotinylated (BLI) (mouse)
# [4] = target: Nrxn2 LNS2^SS2−, AviTag-His, biotinylated (BLI) (mouse)
# [5] = target: Nrxn1 LNS2^SS2AB+ (I401Q), AviTag-His, biotinylated (BLI) (mouse)
# [6] = target: Nrxn1 LNS2^SS2AB+, AviTag-His, biotinylated (BLI) (mouse)
# Sequence of Nxph1-2XFLAG-His (mature rat neurexophilin-1, 118-271, glycosylated) (Q63366 118-271): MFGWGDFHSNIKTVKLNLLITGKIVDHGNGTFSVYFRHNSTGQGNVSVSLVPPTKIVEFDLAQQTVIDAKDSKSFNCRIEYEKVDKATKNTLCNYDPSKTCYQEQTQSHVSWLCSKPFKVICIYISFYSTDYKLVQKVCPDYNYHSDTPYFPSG
# Sequence of Nxph3-2XFLAG-His (rat neurexophilin-3, 50-252) (Q9Z2N5 50-252): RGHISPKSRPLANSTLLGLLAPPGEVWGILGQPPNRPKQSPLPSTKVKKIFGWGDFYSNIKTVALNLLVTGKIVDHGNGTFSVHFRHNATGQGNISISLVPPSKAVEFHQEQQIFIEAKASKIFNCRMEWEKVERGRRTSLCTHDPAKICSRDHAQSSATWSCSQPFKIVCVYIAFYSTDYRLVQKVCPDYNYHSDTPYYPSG
Substance,Kd [1],koff [1],kon [1],Kd [2],koff [2],kon [2],Kd [3],koff [3],kon [3],Kd [4],koff [4],kon [4],Kd [5],koff [5],kon [5],Kd [6],koff [6],kon [6]
"Nxph3-2XFLAG-His (rat neurexophilin-3, 50-252) (from UniProt Q9Z2N5 50-252) (ligand)",0.177 µM,3.1e-05 s⁻¹,178 M⁻¹ s⁻¹,1.31 µM,0.00044 s⁻¹,350 M⁻¹ s⁻¹,3.5 µM,0.00053 s⁻¹,153 M⁻¹ s⁻¹,0.212 µM,6.7e-05 s⁻¹,302 M⁻¹ s⁻¹,,,,,,
"Nxph1-2XFLAG-His (mature rat neurexophilin-1, 118-271, glycosylated) (from UniProt Q63366 118-271) (ligand)",0.207 µM,9.2e-05 s⁻¹,444 M⁻¹ s⁻¹,39.3 µM,0.0025 s⁻¹,381 M⁻¹ s⁻¹,1940 µM,0.012 s⁻¹,10.5 M⁻¹ s⁻¹,0.124 µM,6.9e-05 s⁻¹,554 M⁻¹ s⁻¹,0.499 µM,0.00034 s⁻¹,674 M⁻¹ s⁻¹,0.0433 µM,9.4e-05 s⁻¹,2170 M⁻¹ s⁻¹
